Test results: paper PMC5458759 (Genes & Development, 2017)

B3: TMM^LRR, extracellular LRR domain of TOO MANY MOUTHS (TMM) (domain or fragment)
chain: MTNDGARTEPDEQDAVYDIMRATGNDWAAAIPDVCRGRWHGIECMPDQDNVYHVVSLSFGALSDDTAFPTCDPQRSYVSESLTRLKHLKALFFYRCLGRAPQRIPAFLGRLGSSLQTLVLRENGFLGPIPDELGNLTNLKVLDLHKNHLNGSIPLSFNRFSGLRSLDLSGNRLTGSIPGFVLPALSVLDLNQNLLTGPVPPTLTSCGSLIKIDLSRNRVTGPIPESINRLNQLVLLDLSYNRLSGPFPSSLQGLNSLQALMLKGNTKFSTTIPENAFKGLKNLMILVLSNTNIQGSIPKSLTRLNSLRVLHLEGNNLTGEIPLEFRDVKHLSELRLNDNSLTGPVPFERDTVWRMRRKLRLYNNAGLCVNRDSDLDDAFGSKSGSTVRLCDAETSRPAPSGTVQHLSREEDGALPDGATDVSST

How the values were obtained:
[1] = molecular target: T1, ERL1^LRR–TMM^LRR complex (Arabidopsis thaliana, UniProt C0LGW6;Q9SSD1); experiment: ITC
T1 sequence 1: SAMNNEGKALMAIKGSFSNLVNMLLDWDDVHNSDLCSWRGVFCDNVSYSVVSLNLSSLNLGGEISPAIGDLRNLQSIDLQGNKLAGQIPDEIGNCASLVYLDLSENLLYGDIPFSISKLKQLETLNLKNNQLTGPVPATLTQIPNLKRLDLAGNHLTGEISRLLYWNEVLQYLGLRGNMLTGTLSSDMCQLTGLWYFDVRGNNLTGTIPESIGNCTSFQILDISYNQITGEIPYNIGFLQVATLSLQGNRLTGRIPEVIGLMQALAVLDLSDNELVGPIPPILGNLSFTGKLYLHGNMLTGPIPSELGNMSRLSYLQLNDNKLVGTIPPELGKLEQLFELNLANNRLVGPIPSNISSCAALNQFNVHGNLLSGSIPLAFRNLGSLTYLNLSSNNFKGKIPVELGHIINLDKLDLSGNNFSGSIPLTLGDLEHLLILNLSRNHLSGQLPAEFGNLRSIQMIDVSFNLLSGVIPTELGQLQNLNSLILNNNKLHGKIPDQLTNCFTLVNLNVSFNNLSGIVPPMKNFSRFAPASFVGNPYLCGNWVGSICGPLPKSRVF
T1 sequence 2: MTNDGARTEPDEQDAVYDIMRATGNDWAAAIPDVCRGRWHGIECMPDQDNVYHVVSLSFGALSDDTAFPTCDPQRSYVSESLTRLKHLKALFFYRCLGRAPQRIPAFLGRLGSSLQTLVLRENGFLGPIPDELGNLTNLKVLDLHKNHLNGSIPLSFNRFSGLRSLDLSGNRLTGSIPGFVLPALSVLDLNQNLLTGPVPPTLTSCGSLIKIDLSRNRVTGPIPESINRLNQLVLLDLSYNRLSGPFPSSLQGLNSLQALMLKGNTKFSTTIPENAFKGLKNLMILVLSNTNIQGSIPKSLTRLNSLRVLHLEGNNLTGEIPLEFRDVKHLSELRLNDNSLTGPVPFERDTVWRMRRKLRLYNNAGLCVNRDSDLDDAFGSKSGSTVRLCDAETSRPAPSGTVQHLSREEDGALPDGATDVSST

[2] = molecular target: T2, ER^LRR, extracellular LRR domain of ERECTA (ER) (Arabidopsis thaliana, UniProt Q42371 24-580); experiment: pull-down
T2 sequence: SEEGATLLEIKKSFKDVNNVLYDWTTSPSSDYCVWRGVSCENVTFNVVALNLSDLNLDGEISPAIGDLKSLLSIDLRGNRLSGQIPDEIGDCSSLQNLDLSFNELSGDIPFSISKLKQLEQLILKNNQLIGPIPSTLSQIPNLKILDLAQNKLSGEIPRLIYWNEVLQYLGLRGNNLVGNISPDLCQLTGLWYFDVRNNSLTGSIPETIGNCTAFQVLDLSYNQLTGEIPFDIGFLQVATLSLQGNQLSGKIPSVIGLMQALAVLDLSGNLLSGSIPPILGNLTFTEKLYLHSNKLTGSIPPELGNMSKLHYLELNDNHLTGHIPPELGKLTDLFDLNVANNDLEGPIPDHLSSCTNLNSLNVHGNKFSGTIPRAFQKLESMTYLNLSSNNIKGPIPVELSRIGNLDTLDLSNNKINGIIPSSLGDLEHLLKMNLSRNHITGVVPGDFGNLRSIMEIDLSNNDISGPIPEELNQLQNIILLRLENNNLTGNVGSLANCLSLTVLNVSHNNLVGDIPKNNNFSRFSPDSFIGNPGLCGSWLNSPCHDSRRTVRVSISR

[3] = molecular target: T3, ERL2^LRR, extracellular LRR domain of ERL2 (Arabidopsis thaliana, UniProt Q6XAT2 28-580); experiment: pull-down
T3 sequence: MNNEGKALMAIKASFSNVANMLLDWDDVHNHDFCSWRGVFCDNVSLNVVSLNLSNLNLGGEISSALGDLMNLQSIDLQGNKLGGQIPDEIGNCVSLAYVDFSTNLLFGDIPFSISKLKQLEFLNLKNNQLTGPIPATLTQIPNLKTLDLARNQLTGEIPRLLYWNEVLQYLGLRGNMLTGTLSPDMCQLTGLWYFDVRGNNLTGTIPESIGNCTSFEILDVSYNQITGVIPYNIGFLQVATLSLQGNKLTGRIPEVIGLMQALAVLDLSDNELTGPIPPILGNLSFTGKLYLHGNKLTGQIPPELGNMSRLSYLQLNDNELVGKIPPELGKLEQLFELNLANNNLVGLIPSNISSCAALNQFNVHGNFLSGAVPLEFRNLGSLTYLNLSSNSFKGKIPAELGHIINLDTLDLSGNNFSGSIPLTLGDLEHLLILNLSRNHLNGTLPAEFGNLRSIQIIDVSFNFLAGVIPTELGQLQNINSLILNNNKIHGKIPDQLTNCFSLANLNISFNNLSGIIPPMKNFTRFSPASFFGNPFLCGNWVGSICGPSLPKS

[4] = molecular target: T4, ER^LRR–TMM^LRR complex (Arabidopsis thaliana, UniProt Q42371;Q9SSD1); experiment: SEC
T4 sequence 1: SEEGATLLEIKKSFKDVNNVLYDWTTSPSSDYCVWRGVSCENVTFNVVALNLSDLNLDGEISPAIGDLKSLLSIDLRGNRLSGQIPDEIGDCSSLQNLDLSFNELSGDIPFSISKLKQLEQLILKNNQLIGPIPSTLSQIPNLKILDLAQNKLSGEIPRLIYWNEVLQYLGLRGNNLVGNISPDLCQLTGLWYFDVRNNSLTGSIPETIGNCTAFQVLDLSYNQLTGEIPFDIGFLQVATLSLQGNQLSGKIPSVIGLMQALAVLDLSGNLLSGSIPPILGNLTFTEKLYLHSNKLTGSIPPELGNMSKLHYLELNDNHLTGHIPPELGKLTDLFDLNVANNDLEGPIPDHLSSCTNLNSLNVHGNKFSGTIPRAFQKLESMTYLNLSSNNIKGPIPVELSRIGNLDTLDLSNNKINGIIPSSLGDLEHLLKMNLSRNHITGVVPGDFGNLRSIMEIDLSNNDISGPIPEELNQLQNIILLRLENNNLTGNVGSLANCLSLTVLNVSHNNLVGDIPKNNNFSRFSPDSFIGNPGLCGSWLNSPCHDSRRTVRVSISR
T4 sequence 2: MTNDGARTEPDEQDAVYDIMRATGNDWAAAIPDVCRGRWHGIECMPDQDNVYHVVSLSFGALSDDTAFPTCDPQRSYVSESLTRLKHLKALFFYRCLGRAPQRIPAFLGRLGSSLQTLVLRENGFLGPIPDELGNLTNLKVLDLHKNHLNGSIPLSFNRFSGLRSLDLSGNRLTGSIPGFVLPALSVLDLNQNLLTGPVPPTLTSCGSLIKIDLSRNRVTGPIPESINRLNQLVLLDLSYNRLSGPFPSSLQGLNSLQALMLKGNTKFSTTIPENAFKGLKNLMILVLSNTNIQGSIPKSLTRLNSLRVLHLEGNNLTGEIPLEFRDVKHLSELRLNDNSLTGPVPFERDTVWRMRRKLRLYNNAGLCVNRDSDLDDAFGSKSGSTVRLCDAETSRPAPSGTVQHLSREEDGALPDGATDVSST

[5] = molecular target: B3; experiment: crystal structure
[6] = molecular target: T2, ER^LRR, extracellular LRR domain of …; experiment: SEC
[7] = molecular target: T5, ERL1^LRR, extracellular LRR domain of ER-LIKE1 (ERL1) (Arabidopsis thaliana, UniProt C0LGW6 24-580); experiment: SEC
T5 sequence: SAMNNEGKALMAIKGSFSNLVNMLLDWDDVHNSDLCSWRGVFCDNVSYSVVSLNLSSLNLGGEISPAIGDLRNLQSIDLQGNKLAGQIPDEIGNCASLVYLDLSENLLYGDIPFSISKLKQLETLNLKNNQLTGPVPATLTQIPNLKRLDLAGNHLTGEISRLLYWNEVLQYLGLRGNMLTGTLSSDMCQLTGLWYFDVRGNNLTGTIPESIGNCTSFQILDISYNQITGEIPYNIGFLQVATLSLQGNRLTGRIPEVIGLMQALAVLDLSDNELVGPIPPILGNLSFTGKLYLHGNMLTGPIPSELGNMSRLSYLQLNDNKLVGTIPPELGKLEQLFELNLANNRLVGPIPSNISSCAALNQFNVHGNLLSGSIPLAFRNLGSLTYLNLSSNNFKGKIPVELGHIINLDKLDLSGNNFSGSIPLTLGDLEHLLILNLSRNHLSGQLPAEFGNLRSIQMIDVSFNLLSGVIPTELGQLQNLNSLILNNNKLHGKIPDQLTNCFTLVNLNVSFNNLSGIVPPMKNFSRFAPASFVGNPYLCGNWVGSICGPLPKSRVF

[8] = molecular target: T4, ER^LRR–TMM^LRR complex; experiment: pull-down

B1: EPFL4 (CHALLAH-LIKE2, CLL2) peptide, residues 59–109 (peptide)
chain: PGSSPPTCRSKCGKCQPCKPVHVPIQPGLSMPLEYYPEAWRCKCGNKLFMP
Kd [1]: 1300 nM
binding result [2]: binds
binding result [3]: binds

B2: … PATTERNING FACTOR 1 (EPF1) peptide, residues 53–104 (peptide)
chain: AGSRLPDCSHACGSCSPCRLVMVSFVCASVEEAETCPMAYKCMCNNKSYPVP
binding result [4]: binds
binding result [5]: binds

B3
stoichiometry N [6]: ~1
stoichiometry N [7]: ~1

B4: … PATTERNING FACTOR 2 (EPF2) peptide, residues 69–120 (peptide)
chain: TGSSLPDCSYACGACSPCKRVMISFECSVAESCSVIYRCTCRGRYYHVPSRA
binding result [4]: binds
binding result [5]: binds

B5: EPF2-6xHis (C-terminally His-tagged EPF2) (peptide)
chain: TGSSLPDCSYACGACSPCKRVMISFECSVAESCSVIYRCTCRGRYYHVPSRA
binding result [8]: binds
